Where two headings read alike, the source gives them in different places.
T1: NRP-1 peptide (Npep)
T1 sequence (peptide): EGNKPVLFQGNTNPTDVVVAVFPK

T2: NRP-1 peptide (Npep)
T2 construct: also called synthetic peptide Npep
T2 peptide: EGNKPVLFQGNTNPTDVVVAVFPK

B1: a-NRP1_SEM (antibody, from another filing, V domains shown)
VH: EVQLVESGGGLVQPGGSLRLSCAASGFSFSSEPISWVRQAPGKGLEWVSSITGKNGYTYYADSVKGRFTISADTSKNTAYLQMNSLRAEDTAVYYCARWGKKVYGMDVWGQGTLVTVSS
VL: DIQMTQSPSSLSASVGDRVTITCRASQSISSYLAWYQQKPGKAPKLLIYGASSRASGVPSRFSGSGSGTDFTLTISSLQPEDFATYYCQQYMSVPITFGQGTKVEIKR
B2: variant 8 a-NRP1_LEP n° 1 (antibody, V domains shown)
VH: EVQLVESGGGLVQPGGSLRLSCAASGFTFSSYSMHWVRQAPGKGLEWVSYISSGSSTIHYADSVKGRFTISRDNAKNSLYLQMNSLRAEDTAVYYCARRHYGSSRYWYFDVWGQGTTVTVSS
VL: EIVLTQSPATLSLSPGERATLSCRASQSVKSYLAWYQQKPGQAPRLLIYYASSRATGIPARFSGSGSGTDFTLTISSLEPEDFAVYYCQQYSESPYTFGQGTKLEIK
notes: humanized variant of 21B10; isotype control hIgG4; also called Var8; variant no 8
B3: variant 6 a-NRP1_LEP n° 1 (antibody, V domains shown)
VH: B2 VH
VL: DIQMTQSPSTLSASVGDRVTITCRASQSIKSYLAWYQQKPGKAPKLLIYYASSLASGVPSRFSGSGSGTEFTLTISSLQPDDFATYYCQQYGESSYTFGQGTKLEIK
notes: humanized variant of 21B10; isotype control hIgG4; also called Var6; variant no 6

Tests used:
NRP-1 peptide (Npep) [1] = target: T1, NRP-1 peptide (Npep); test: ELISA, antibody 10 µg/ml, 2 µg immobilised Npep
[2] = target: T3, native human NRP-1 on the cell surface (human, UniProt O14786 22-923); test: flow cytometry, MDA-MB-231 cells, 10 ug/ml, +heparinase
T3 construct: whole, on cells; endogenous protein; isoform and glycosaminoglycan state on the cells not defined; also called native NRP-1 on MDA-MB-231 cells; native form of NRP-1 protein on the CTCs cell surface

[3] = target: T3, native human NRP-1 on the cell surface; test: flow cytometry, MDA-MB-231 cells, 40 ug/ml, +chondroitinase
[4] = target: T3, native human NRP-1 on the cell surface; test: flow cytometry, MDA-MB-231 cells, 40 ug/ml, -chondroitinase
[5] = target: recombinant murine NRP-1 (5994-N1-050, Bio-Techne) (murine) (UniProt P97333); test: ELISA, antibody 10 µg/ml, 1 µg immobilised murine NRP-1
Sequence of recombinant murine NRP-1 (5994-N1-050, Bio-Techne) (murine) (P97333 22-856): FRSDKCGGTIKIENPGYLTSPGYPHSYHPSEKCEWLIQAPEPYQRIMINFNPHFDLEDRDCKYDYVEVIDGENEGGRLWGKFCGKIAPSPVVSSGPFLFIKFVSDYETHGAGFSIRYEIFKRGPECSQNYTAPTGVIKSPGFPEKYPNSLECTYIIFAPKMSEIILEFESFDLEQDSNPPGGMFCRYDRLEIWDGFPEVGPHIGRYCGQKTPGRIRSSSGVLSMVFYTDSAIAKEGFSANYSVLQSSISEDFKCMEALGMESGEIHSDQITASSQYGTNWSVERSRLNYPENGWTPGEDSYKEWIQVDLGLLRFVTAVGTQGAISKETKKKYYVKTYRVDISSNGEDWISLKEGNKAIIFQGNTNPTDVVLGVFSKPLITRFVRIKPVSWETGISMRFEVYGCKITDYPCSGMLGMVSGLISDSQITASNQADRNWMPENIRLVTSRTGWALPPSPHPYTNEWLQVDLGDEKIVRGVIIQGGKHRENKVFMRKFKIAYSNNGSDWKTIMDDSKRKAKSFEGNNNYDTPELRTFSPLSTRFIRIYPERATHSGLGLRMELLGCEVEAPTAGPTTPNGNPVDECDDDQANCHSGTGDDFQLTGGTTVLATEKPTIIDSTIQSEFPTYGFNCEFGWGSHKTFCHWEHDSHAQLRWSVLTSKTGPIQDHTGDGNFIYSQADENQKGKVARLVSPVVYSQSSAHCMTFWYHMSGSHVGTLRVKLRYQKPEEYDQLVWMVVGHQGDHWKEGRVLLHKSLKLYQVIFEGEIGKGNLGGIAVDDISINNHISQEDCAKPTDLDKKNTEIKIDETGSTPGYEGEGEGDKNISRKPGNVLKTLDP

[6] = target: recombinant human NRP-1 (3870-N1-025, Bio-Techne) (human) (UniProt O14786); test: ELISA, antibody 10 µg/ml, 1 µg immobilised human NRP-1
[7] = target: T3, native human NRP-1 on the cell surface; test: flow cytometry, MDA-MB-231 cells, 10 ug/ml, -heparinase
[8] = target: T3, native human NRP-1 on the cell surface; test: flow cytometry, CTC cells mix, 50 ug/ml
[9] = target: T3, native human NRP-1 on the cell surface; test: flow cytometry, CTC cells mix, 25 ug/ml
[10] = target: T3, native human NRP-1 on the cell surface; test: flow cytometry, CTC cells mix, 10 ug/ml
[11] = target: native human NRP-1 on the cell surface (human) (UniProt O14786); test: flow cytometry, MDA-MB-231 cells, 10 ug/ml, with against without heparinase
[12] = target: native human NRP-1 on the cell surface (human) (UniProt O14786); test: flow cytometry, MDA-MB-231 cells, 10 ug/ml, +heparinase
[13] = target: native human NRP-1 on the cell surface (human) (UniProt O14786); test: flow cytometry, MDA-MB-231 cells, 40 ug/ml, with against without chondroitinase
[14] = target: native human NRP-1 on the cell surface (human) (UniProt O14786); test: flow cytometry, MDA-MB-231 cells, 40 ug/ml, +chondroitinase
[15] = target: native human NRP-1 on the cell surface (human) (UniProt O14786); test: flow cytometry, MDA-MB-231 cells, 40 ug/ml, -chondroitinase
[16] = target: native human NRP-1 on the cell surface (human) (UniProt O14786); test: flow cytometry, MDA-MB-231 cells, 10 ug/ml, -heparinase
[17] = target: T3, native human NRP-1 on the cell surface; test: flow cytometry, MDA-MB-231 cells, 40 ug/ml, +chondroitinase; remark: listed apart in the source
Experimental: (§1) Chondroitinase (C2905, Sigma) was reconstituted in a 0.01% BSA aqueous solution. The MDA-MB-231 cells were treated with chondroitinase (1 U/ml) for 2 hours at 37° C. The cells were detached using cell dissociation solution non-enzymatic (C5914, Sigma). 300,000 cells per condition were washed with 2% FBS in PBS and then incubated with different antibodies of interest or their respective isotype controls at 40 μg/ml for 30 min at 4° C. After wash, an Alexa 488-conjugated anti-human immunoglobulin antibody (20022-1, Biotium) was added at 10 μg/ml for 30 min at 4° C. After a final wash, fluorescence, size and granularity of cells were measured by the LSR Fortessa cytometer (BD Biosciences).

[18] = target: T3, native human NRP-1 on the cell surface; test: flow cytometry, MDA-MB-231 cells, 10 ug/ml, -heparinase; remark: listed apart in the source
[19] = target: T3, native human NRP-1 on the cell surface; test: flow cytometry, MDA-MB-231 cells, 10 ug/ml, with against without heparinase
[20] = target: T4, recombinant murine NRP-1 (5994-N1-050, Bio-Techne) (murine, UniProt P97333 22-856); test: ELISA, antibody 10 µg/ml, 1 µg immobilised murine NRP-1
T4 construct: extracellular domain; bought protein; also called mouse recombinant NRP-1
T4 sequence (P97333 22-856): as above

[21] = target: T3, native human NRP-1 on the cell surface; test: flow cytometry, MDA-MB-231 cells, 40 ug/ml, -chondroitinase; remark: listed apart in the source
Experimental: as §1

[22] = target: T5, recombinant human NRP-1 (3870-N1-025, Bio-Techne) (human, UniProt O14786 22-856); test: ELISA, antibody 10 µg/ml, 1 µg immobilised human NRP-1
T5 construct: extracellular domain; bought protein; also called human recombinant NRP-1

NRP-1 peptide (Npep) [23] = target: T2, NRP-1 peptide (Npep); test: ELISA, antibody 10 µg/ml, 2 µg immobilised Npep
[24] = target: T3, native human NRP-1 on the cell surface; test: flow cytometry, MDA-MB-231 cells, 10 ug/ml, +heparinase; remark: listed apart in the source
[25] = target: T3, native human NRP-1 on the cell surface; test: flow cytometry, MDA-MB-231 cells, 40 ug/ml, with against without chondroitinase
Experimental: as §1

| Molecule | Absorbance (NRP-1 peptide (Npep) [1]) | percentage of binding [2] [%] | percentage of binding [3] [%] | percentage of binding [4] [%] | Absorbance [5] | Absorbance [6] | percentage of binding [7] [%] | percent of bound cells [8] [%] | percent of bound cells [9] [%] | percent of bound cells [10] [%] | percentage of binding [17] [%] | percentage of binding [18] [%] | delta (% of control) [19] [%] | Absorbance [20] | percentage of binding [21] [%] | Absorbance [22] | Absorbance (NRP-1 peptide (Npep) [23]) | percentage of binding [24] [%] | delta (% of control) [25] [%] | other results |
| --- | --- | --- | --- | --- | --- | --- | --- | --- | --- | --- | --- | --- | --- | --- | --- | --- | --- | --- | --- | --- |
| hIgG1 isotype control (antibody) | 0.05 | 0.14 | 0.063 | 0.1 | 0.084 | 0.073 | 0.17 |  |  |  |  |  |  |  |  |  |  |  |  |  |
| mIgG2b isotype control (antibody) |  | 0.28 | 0.66 | 0.45 |  |  | 0.086 | 14.4 | 6.66 | 3.65 |  |  |  |  |  |  |  |  |  |  |
| hIgG4 isotype control (antibody) | 0.055 | 0.24 |  | 0.47 | 0.064 | 0.073 | 0.2 | 4.04 | 3.3 | 2.04 |  |  |  |  |  |  |  |  |  |  |
| B1 | 0.063 |  |  |  | 0.431 | 0.407 |  |  |  |  |  |  |  |  |  |  |  |  |  | delta (% of control) [11]: 1.1%; percentage of binding [12]: 97.7%; delta (% of control) [13]: -0.1%; percentage of binding [14]: 99.9%; percentage of binding [15]: 100%; percentage of binding [16]: 96.6% |
| B2 |  |  |  |  |  |  |  |  |  |  | 61.5 | 13.3 | -3.42 | 0.412 | 75.6 | 0.59 | 0.475 | 9.88 | -14.1 |  |
| B3 |  |  |  |  |  |  |  |  |  |  | 69.1 | 13.1 | -1.6 | 0.72 | 85.3 | 0.799 | 0.684 | 11.5 | -16.2 |  |

— patent US20260226176A1 (THERANOVIR, published 2026)
